The record followed here is publication PMC7596504, “Molecular mechanism of the MORC4 ATPase activation” (Nature Communications, 2020).

For one assay, the system named is NCP207. In words: Fluorescence polarization binding to NCP207. The method, then:
Fluorescence polarization measurements were acquired with a Tecan infinite M1000Pro plate reader by exciting at 470 nm and measuring polarized emission at 519 nm with 5 nm excitation and emission bandwidths. The fluorescence polarization was calculated from the emission polarized parallel and perpendicular to the polarized excitation light. Fluorescence polarization measurements were carried out using increasing concentrations of MORC4 ATPaseCW, ATPase alone, or CW alone with 5 nM 207 bp Fluorescein-labeled NCPs in 15 mM Tris pH 7.5, 75 mM NaCl, 0.00625% Tween 20, and 5 mM dithiothreitol buffer in 30 µL reaction volumes. The samples were loaded into a Corning round bottom black polystyrene plate and incubated at room temperature for 10 min before fluorescence polarization measurements of the samples were taken. The data were then fit to a non-cooperative binding isotherm to determine S1/2 values. Errors represent a S.D. between the S1/2 values based on three runs.
(§1) Histone octamers unlabeled or labeled with Cy5 at H2AK119 were prepared as previously described. NCPs were reconstituted by combining octamer with 1.25× excess DNA and performing slow salt dialysis. Free DNA was then separated from fully reconstituted NCPs by sucrose gradient purification. NCPs for fluorescence polarization assays were reconstituted from unlabeled octamer and 207 bp DNA containing the 601 Widom sequence flanked with a 30 bp linker on either side and internally labeled with Fluorescein 27 bp in from the 5′ end. Cy3-Cy5 labeled NCPs for FRET assays were reconstituted with Cy5 labeled octamer plus either 147 bp 601 Widom DNA containing a LexA transcription factor binding site at bases 8–27[34], or 252 bp DNA containing the 601 Widom sequence with a 75 bp linker at the 3′ end, a 30 bp linker at the 5’ end, and a Gal4 transcription factor binding site at bases 8–26 in the 601 Widom sequence. The 147 bp LexA-binding DNA was labeled with Cy3 on the 5′ end, and the 252 bp Gal4-binding DNA was internally labeled with Cy3 34 bp in from the 5′ end.

The test system of another assay is NCP147. In words: FRET, LexA titration into Cy3-Cy5 labeled NCP147. The assay is classed as binding. The conditions noted are these: addition of MORC4 ATPaseCW. As for the experimental part:
as §1
LexA was expressed in E. coli, separated from genomic DNA and the proteome by polyethyleneimine precipitation, and salted out with ammonium sulfate. LexA was resuspended in buffer A (20 mM potassium phosphate pH 7, 0.1 mM EDTA, 10% glycerol, 1 mM DTT) + 200 mM NaCl and purified by a linear gradient to A + 800 mM NaCl over either a cellulose phosphate or HiTrap Heparin HP column. […]
Cy3-Cy5 NCP FRET efficiency measurements were carried out on a Horiba Scientific Fluoromax 4. […] LexA titrations were carried out in 20 mM Tris pH 7.5, 75 mM NaCl, 10% glycerol, 0.00625% Tween 20 buffer with 5 nM 147 bp Cy3-Cy5 NCPs mixed in 20 µL reaction volumes and allowed to incubate for 5 mins at 4 °C before FRET of the sample was measured. […] Gal4 (1–147) titrations were carried out in 10 mM Tris pH 8, 130 mM NaCl, 10% glycerol, 0.0075% Tween 20 buffer with 1 nM 252 bp Cy3-Cy5 nucleosomes mixed in 60 µL reaction volumes and allowed to incubate for 10 mins at room temperature before FRET of the sample was measured. […]

Another assay has as its system O’RangeRuler 5 bp ladder. As to the kind of experiment: EMSA with DNA ladder (minimum DNA length). The assay is classed as binding. The settings on record: 5 bp ladder 50 ng, pH 7.5, 150 mM NaCl. As for the experimental part:
EMSA experiments were performed essentially as described. In brief, increasing amounts of WT or mutant CW or ATPaseCW cassette of MORC4 were incubated with 147 bp 601 DNA (5 pmol) or 50 ng of O’RangeRuler 5 bp ladder (Thermo Scientific) in a DNA-binding buffer containing 20 mM Tris-HCl (pH 7.5), 150 mM NaCl, 2.5 mM MgCl2, and 2 mM DTT for 0.5 h on ice. The reaction mixtures were loaded on 5% native polyacrylamide gels, and electrophoresis was performed in 0.2× Tris-borate-EDTA (TBE) buffer at 100 V for 1.2 h on ice. Gels were stained with SYBR Gold (Invitrogen).

B1: ATPaseCW: ATPaseCW cassette (aa 29–486) of human MORC4 (Q8TE76) (protein)
chain: GIRLSTMSPRYLQSNSSSHTRPFSAIAELLDNAVDPDVSARTVFIDVEEVKNKSCLTFTDDGCGMTPHKLHRMLSFGFTDKVIKKSQCPIGVFGNGFKSGSMRLGKDALVFTKNGGTLTVGLLSQTYLECVQAQAVIVPIVPFNQQNKKMIITEDSLPSLEAILNYSIFNRENDLLAQFDAIPGKKGTRVLIWNIRRNKNGKSELDFDTDQYDILVSDFDTEEKMTGGVTSELPETEYSLRAFCGILYMKPRMKIFLRQKKVTTQMIAKSLANVEYDTYKPTFTNKQVRITFGFSCKNSNQFGIMMYHNNRLIKSFEKVGCQVKPTRGEGVGVIGVIECNFLKPAYNKQDFEYTKEYRLTINALAQKLNAYWKEKTSQDNFETSTVARPIPKVPDQTWVQCDECLKWRKLPGKIDPSMLPARWFCYYNSHPKYRRCSVPEEQELTDEDLCLSKAKKQE
modifications: left off: GST, end not stated, cleaved
For B1, the “tighter binding to NCP147 or NCP207 than the ATPase domain only” value in the assay on NCP207 (ATPaseCW vs ATPase domain, either NCP147 or NCP207) was 2.5–6 fold. Moreover, in the assay with NCP207 (NCP207 vs NCP147), the “increase in interaction with NCP207 relative to NCP147” value is on record as ~ 2 fold. The same molecule returned an S1/2 with NCP207 (fluorescence polarization, 5 nM NCP207, pH 7.5, 75 mM NaCl, room temperature, 10 min, mean ± S.D. of n = 3) of 0.20 ± 0.07 µM. For the same molecule, the “effect on binding of LexA to NCP147” value in the assay with NCP147 is recorded as “decrease in binding of LexA to NCP147”. Also, the “minimum DNA length for appreciable interaction” value with O’RangeRuler 5 bp ladder is at least 30 bp.
